Measurements as given in patent US7794719 (dated 2010).

Columns and labels:
Aβ1-42 fibers [1] = biological target: Aβ1-42 fibers (human); test: SPR
Aβ1-40 fibers [2] = biological target: Aβ1-40 fibers (human); test: SPR
Aβ1-42 fibers [3] = biological target: Aβ1-42 fibers (human); test: SPR; remark: listed apart in the source
Aβ1-40 fibers [4] = biological target: Aβ1-40 fibers (human); test: SPR; remark: listed apart in the source
Aβ1-40 fibers [5] = biological target: Aβ1-40 fibers (human); test: SPR; remark: listed apart in the source
Aβ1-42 fibers [6] = biological target: Aβ1-42 fibers (human); test: SPR; remark: listed apart in the source
Aβ1-42 fibers [7] = biological target: Aβ1-42 fibers (human); test: SPR, monovalent
Aβ1-42 fibers [8] = biological target: Aβ1-42 fibers (human); test: SPR, bivalent
Aβ1-40 fibers [9] = biological target: Aβ1-40 fibers (human); test: SPR, bivalent
Aβ1-40 fibers [10] = biological target: Aβ1-40 fibers (human); test: SPR, monovalent

B1: MS-R 7.11.H1 x 7.2.L1 IgG1 (antibody, V domains shown)
VH: QLVESGGGLVQPGGSLRLSCAASGFTFSSYAMSWVRQAPGKGLEWVSGINAAGFRTYYADSVKGRFTISRDNSKNTLYLQMNSLRAEDTAVYYCARGKGNTHKPYGYVRYFDVWGQGTLVTVSS
VL: DIVLTQSPATLSLSPGERATLSCRASQYVDRTYLAWYQQKPGQAPRLLIYGASSRATGVPARFSGSGSGTDFTLTISSLEPEDFATYYCQQIYSFPHTFGQGTKVEIKR
For B1, which Kd (Aβ1-42 fibers [1]) is on record?
The Kd was 0.67 nM.

What about the Kd (Aβ1-40 fibers [2]) of the same binder?
Its Kd is 0.14 nM.

What about the Kd (Aβ1-42 fibers [3]) of the same binder?
Its Kd is 0.15 nM.

And the Kd (Aβ1-40 fibers [4])?
The Kd was 0.66 nM.

B2: MS-R 7.11.H1 x 7.11.L1 IgG1 (antibody, V domains shown)
VH: QLVESGGGLVQPGGSLRLSCAASGFTFSSYAMSWVRQAPGKGLEWVSGINAAGFRTYYADSVKGRFTISRDNSKNTLYLQMNSLRAEDTAVYYCARGKGNTHKPYGYVRYFDVWGQGTLVTVSS
VL: DIVLTQSPATLSLSPGERATLSCRASQRILRIYLAWYQQKPGQAPRLLIYGASSRATGVPARFSGSGSGTDFTLTISSLEPEDFATYYCQQVYSPPHTFGQGTKVEIKR
Which results are given for B2?
Kd (Aβ1-42 fibers [1]): 0.7 nM; Kd (Aβ1-40 fibers [2]): 0.11 nM; Kd (Aβ1-42 fibers [3]): 0.13 nM; Kd (Aβ1-40 fibers [4]): 0.7 nM

B3: MS-R 7.9.H7 IgG1 (antibody, V domains shown)
VH: QVELVESGGGLVQPGGSLRLSCAASGFTFSSYAMSWVRQAPGKGLEWVSAINASGTRTYYADSVKGRFTISRDNSKNTLYLQMNSLRAEDTAVYYCARGKGNTHKPYGYVRYFDVWGQGTLVTVSS
VL: DIVLTQSPATLSLSPGERATLSCRASQSVSSSYLAWYQQKPGQAPRLLIYGASSRATGVPARFSGSGSGTDFTLTISSLEPEDFATYYCLQIYNMPITFGQGTKVEIKR
With B3 as the binder, how does the Kd (Aβ1-42 fibers [1]) read?
The Kd was 0.7 nM.

What about the Kd (Aβ1-40 fibers [2]) of the same binder?
The Kd was 0.25 nM.

And the Kd (Aβ1-42 fibers [3])?
Its Kd is 0.24 nM.

What about the Kd (Aβ1-40 fibers [4]) of the same binder?
The Kd was 0.69 nM.

B4: MS-R 7.9H4 Fab (antibody, V domains shown)
VH: QLVESGGGLVQPGGSLRLSCAASGFTFSSYAMSWVRQAPGKGLEWVSAINAVGMKKFYADSVKGRFTISRDNSKNTLYLQMNSLRAEDTAVYYCARGKGNTHKPYGYVRYFDVWGQGTLVTVSS
VL: DIVLTQSPATLSLSPGERATLSCRASQSVSSSYLAWYQQKPGQAPRLLIYGASSRATGVPARFSGSGSGTDFTLTISSLEPEDFATYYCLQIYNMPITFGQGTKVEIKR
B4 was tested. Which Kd (Aβ1-40 fibers [5]) did it give?
Its Kd is 4.8 nM.

And the Kd (Aβ1-42 fibers [6])?
Its Kd is 4.2 nM.

B5: MS-R 7.11L1 Fab (antibody, V domains shown)
VH: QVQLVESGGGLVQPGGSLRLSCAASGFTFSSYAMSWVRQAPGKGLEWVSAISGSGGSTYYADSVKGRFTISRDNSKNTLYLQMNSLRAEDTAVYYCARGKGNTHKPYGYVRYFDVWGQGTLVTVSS
VL: DIVLTQSPATLSLSPGERATLSCRASQRILRIYLAWYQQKPGQAPRLLIYGASSRATGVPARFSGSGSGTDFTLTISSLEPEDFATYYCQQVYSPPHTFGQGTKVEIKR
Which results are given for B5?
Kd (Aβ1-40 fibers [5]): 1.1 nM; Kd (Aβ1-42 fibers [6]): 1.2 nM

B6: MS-R 7.9H2 Fab (antibody, V domains shown)
VH: QLVESGGGLVQPGGSLRLSCAASGFTFSSYAMSWVRQAPGKGLEWVSAINADGNRKYYADSVKGRFTISRDNSKNTLYLQMNSLRAEDTAVYYCARGKGNTHKPYGYVRYFDVWGQGTLVTVSS
VL: DIVLTQSPATLSLSPGERATLSCRASQSVSSSYLAWYQQKPGQAPRLLIYGASSRATGVPARFSGSGSGTDFTLTISSLEPEDFATYYCLQIYNMPITFGQGTKVEIKR
For B6, which Kd (Aβ1-40 fibers [5]) is on record?
The Kd was 5 nM.

What about the Kd (Aβ1-42 fibers [6]) of the same binder?
The Kd was 5.7 nM.

B7: MS-R 7.9H7 Fab (antibody, V domains shown)
VH: QVQLVESGGGLVQPGGSLRLSCAASGFTFSSYAMSWVRQAPGKGLEWVSAINASGTRTYYADSVKGRFTISRDNSKNTLYLQMNSLRAEDTAVYYCARGKGNTHKPYGYVRYFDVWGQGTLVTVSS
VL: DIVLTQSPATLSLSPGERATLSCRASQSVSSSYLAWYQQKPGQAPRLLIYGASSRATGVPARFSGSGSGTDFTLTISSLEPEDFATYYCLQIYNMPITFGQGTKVEIKR
B7 was tested. Which Kd (Aβ1-40 fibers [5]) did it give?
Its Kd is 1 nM.

What about the Kd (Aβ1-42 fibers [6]) of the same binder?
The Kd was 0.9 nM.

B8: MS-R 3.4L7 Fab (antibody, V domains shown)
VH: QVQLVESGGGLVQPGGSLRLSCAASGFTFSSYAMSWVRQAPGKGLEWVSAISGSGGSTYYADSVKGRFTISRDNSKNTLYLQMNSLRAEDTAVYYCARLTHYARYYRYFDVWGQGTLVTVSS
VL: DIVLTQSPATLSLSPGERATLSCRASQRLGRLYLAWYQQKPGQAPRLLIYGASSRATGVPARFSGSGSGTDFTLTISSLEPEDFATYYCQQTYDYPPTFGQGTKVEIKR
B8 was tested. Which Kd (Aβ1-40 fibers [5]) did it give?
Its Kd is 9.3 nM.

And the Kd (Aβ1-42 fibers [6])?
Its Kd is 9.3 nM.

B9: MS-R 3.6L2 Fab (antibody, V domains shown)
VH: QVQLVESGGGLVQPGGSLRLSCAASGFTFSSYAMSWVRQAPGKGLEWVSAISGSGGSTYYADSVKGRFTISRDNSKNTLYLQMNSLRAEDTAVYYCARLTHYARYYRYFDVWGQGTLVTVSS
VL: DIVLTQSPATLSLSPGERATLSCRASQFLSRYYLAWYQQKPGQAPRLLIYGASSRATGVPARFSGSGSGTDFTLTISSLEPEDFAVYYCQQTYNYPPTFGQGTKVEIKR
Which Kd (Aβ1-40 fibers [5]) does the source give for B9 here?
Its Kd is 13.7 nM.

What about the Kd (Aβ1-42 fibers [6]) of the same binder?
The Kd was 13.1 nM.

B10: MS-R 3.4L9 Fab (antibody, V domains shown)
VH: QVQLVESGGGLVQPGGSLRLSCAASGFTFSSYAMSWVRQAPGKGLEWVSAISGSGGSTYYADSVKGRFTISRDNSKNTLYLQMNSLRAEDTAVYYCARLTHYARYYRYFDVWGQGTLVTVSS
VL: DIVLTQSPATLSLSPGERATLSCRASRRIHVYYLAWYQQKPGQAPRLLIYGASSRATGVPARFSGSGSGTDFTLTISSLEPEDFATYYCQQTYDYPPTFGQGTKVEIKR
With B10 as the binder, how does the Kd (Aβ1-40 fibers [5]) read?
Its Kd is 16.3 nM.

What about the Kd (Aβ1-42 fibers [6]) of the same binder?
The Kd was 9.1 nM.

B11: MS-R 3.6L1 Fab (antibody, V domains shown)
VH: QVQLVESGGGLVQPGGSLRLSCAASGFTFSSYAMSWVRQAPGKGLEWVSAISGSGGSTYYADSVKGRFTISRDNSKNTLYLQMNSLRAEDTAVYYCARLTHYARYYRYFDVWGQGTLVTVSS
VL: DIVLTQSPATLSLSPGERATLSCRASQFIQRFYLAWYQQKPGQAPRLLIYGASSRATGVPARFSGSGSGTDFTLTISSLEPEDFAVYYCQQTYNYPPTFGQGTKVEIKR
B11 was tested. Which Kd (Aβ1-40 fibers [5]) did it give?
Its Kd is 15.6 nM.

And the Kd (Aβ1-42 fibers [6])?
The Kd was 11.1 nM.

B12: MS-R 3.6.H5 x 3.6.L2 IgG1 (antibody, V domains shown)
VH: QLVESGGGLVQPGGSLRLSCAASGFTFSSYAMSWVRQAPGKGLEWVSAISESGKTKYYADSVKGRFTISRDNSKNTLYLQMNSLRAEDTAVYYCARLTHYARYYRYFDVWGQGTLVTVSS
VL: DIVLTQSPATLSLSPGERATLSCRASQFLSRYYLAWYQQKPGQAPRLLIYGASSRATGVPARFSGSGSGTDFTLTISSLEPEDFAVYYCQQTYNYPPTFGQGTKVEIKR
With B12 as the binder, how does the Kd (Aβ1-42 fibers [1]) read?
The Kd was 0.95 nM.

And the Kd (Aβ1-40 fibers [2])?
The Kd was 0.2 nM.

What about the Kd (Aβ1-42 fibers [3]) of the same binder?
Its Kd is 0.2 nM.

And the Kd (Aβ1-40 fibers [4])?
Its Kd is 1.03 nM.

B13: MS-R 7.9 Fab (antibody, V domains shown)
VH: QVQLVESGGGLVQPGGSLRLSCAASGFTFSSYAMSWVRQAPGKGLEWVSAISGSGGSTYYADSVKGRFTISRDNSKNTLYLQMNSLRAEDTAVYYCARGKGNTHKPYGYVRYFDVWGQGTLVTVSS
VL: DIVLTQSPATLSLSPGERATLSCRASQSVSSSYLAWYQQKPGQAPRLLIYGASSRATGVPARFSGSGSGTDFTLTISSLEPEDFATYYCLQIYNMPITFGQGTKVEIKR
Which Kd (Aβ1-40 fibers [5]) does the source give for B13 here?
Its Kd is 31 nM.

What about the Kd (Aβ1-42 fibers [6]) of the same binder?
Its Kd is 93 nM.

B14: MS-R 3.6.H8 x 3.6.L2 IgG1 (antibody, V domains shown)
VH: QLVESGGGLVQPGGSLRLSCAASGFTFSSYAMSWVRQAPGKGLEWVSAISEYSKFKYYADSVKGRFTISRDNSKNTLYLQMNSLRAEDTAVYYCARLTHYARYYRYFDVWGQGTLVTVSS
VL: DIVLTQSPATLSLSPGERATLSCRASQFLSRYYLAWYQQKPGQAPRLLIYGASSRATGVPARFSGSGSGTDFTLTISSLEPEDFAVYYCQQTYNYPPTFGQGTKVEIKR
Which results are given for B14?
Kd (Aβ1-42 fibers [7]): 0.82 nM; Kd (Aβ1-42 fibers [8]): 0.22 nM; Kd (Aβ1-40 fibers [9]): 0.22 nM; Kd (Aβ1-40 fibers [10]): 0.95 nM

B15: MS-R 7.4.H2 x 7.2.L1 IgG1 (antibody, V domains shown)
VH: QLVESGGGLVQPGGSLRLSCAASGFTFSSYAMSWVRQAPGKGLEWVSAINYNGARIYYADSVKGRFTISRDNSKNTLYLQMNSLRAEDTAVYYCARGKGNTHKPYGYVRYFDVWGQGTLVTVSS
VL: DIVLTQSPATLSLSPGERATLSCRASQYVDRTYLAWYQQKPGQAPRLLIYGASSRATGVPARFSGSGSGTDFTLTISSLEPEDFATYYCQQIYSFPHTFGQGTKVEIKR
For B15, which Kd (Aβ1-42 fibers [1]) is on record?
The Kd was 0.56 nM.

What about the Kd (Aβ1-40 fibers [2]) of the same binder?
Its Kd is 0.12 nM.

What about the Kd (Aβ1-42 fibers [3]) of the same binder?
The Kd was 0.12 nM.

And the Kd (Aβ1-40 fibers [4])?
The Kd was 0.63 nM.

B16: MS-R 7.2L1 Fab (antibody, V domains shown)
VH: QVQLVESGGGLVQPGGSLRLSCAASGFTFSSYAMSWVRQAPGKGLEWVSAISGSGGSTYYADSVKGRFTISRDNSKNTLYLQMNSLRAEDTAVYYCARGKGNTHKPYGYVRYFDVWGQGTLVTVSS
VL: DIVLTQSPATLSLSPGERATLSCRASQYVDRTYLAWYQQKPGQAPRLLIYGASSRATGVPARFSGSGSGTDFTLTISSLEPEDFATYYCQQIYSFPHTFGQGTKVEIKR
Which Kd (Aβ1-40 fibers [5]) does the source give for B16 here?
The Kd was 13.3 nM.

What about the Kd (Aβ1-42 fibers [6]) of the same binder?
The Kd was 12.7 nM.

B17: MS-R 7.9.H2 IgG1 (antibody, V domains shown)
VH: QLVESGGGLVQPGGSLRLSCAASGFTFSSYAMSWVRQAPGKGLEWVSAINADGNRKYYADSVKGRFTISRDNSKNTLYLQMNSLRAEDTAVYYCARGKGNTHKPYGYVRYFDVWGQGTLVTVSS
VL: DIVLTQSPATLSLSPGERATLSCRASQSVSSSYLAWYQQKPGQAPRLLIYGASSRATGVPARFSGSGSGTDFTLTISSLEPEDFATYYCLQIYNMPITFGQGTKVEIKR
How did the Kd (Aβ1-42 fibers [1]) turn out when B17 was run?
The Kd was 0.38 nM.

What about the Kd (Aβ1-40 fibers [2]) of the same binder?
Its Kd is 0.12 nM.

What about the Kd (Aβ1-42 fibers [3]) of the same binder?
Its Kd is 0.11 nM.

What about the Kd (Aβ1-40 fibers [4]) of the same binder?
The Kd was 0.42 nM.
